# Results as given in the RNAGym collection of RNA variant scans (doi:10.7554/elife.80360).
# B1: HDV Ribozyme (parent)
# chain: GGCCGGCAUGGUCCCAGCCUCCUCGCUGGCGCCGGCUGGGCAACAUUCCGAGGGGACCGUCCCCUCGGUAAUGGCGAAUGGGACCCA
# Variants of: B1
# Assay: self-cleavage, relative activity (ratio to wild type); higher = more cleavage; co-transcriptional
row,Variant,self-cleavage
1,G10C C18G,0.0594
2,U9G C66G,1.19
3,U9G C66U,0.727
4,G10A G52C,0.812
5,G10A G52U,0.838
6,G10A G53A,0.841
7,G10A G53C,0.742
8,G10A G53U,0.857
9,G10C C19U,0.0264
10,G10C C19G,0.0811
11,G10C C19A,0.0563
12,G10A U60G,0.748
13,G10U,0.776
14,G10C,0.935
15,G10A,0.779
16,G10A G80A,0.11
17,G10A G80C,0.131
18,G10A G80U,0.145
19,G10A U12A,0.0733
20,G10A U12G,0
21,G10A A56U,0.845
22,G10C C61U,0.578
23,G10C C61A,0.734
24,G10A C26U,0.874

row,Variant,self-cleavage
1,G10A C32G,0.0966
2,G10A C32U,0.652
3,G10A C32A,0.153
4,G10A C14U,0.59
5,U9G G31C,0.378
6,G10A A70U,0.533
7,G10C G25C,0.178
8,U9G C33A,0.293
9,U9G C33G,0.104
10,U9G G74U,0.415
11,G10C C32A,0.185
12,G10C C32U,0.855
13,G10C A56C,0.978
14,G10A G59C,0.684
15,G10A G59A,0.853
16,G10A G50U,0.67
17,G10A A83G,0.258
18,G10C G76A,1.2
19,G10C U37G,0.262
20,G10C U27G,0.798
21,G10C U27A,0.939
22,U9G C15U,0.962
23,U9G C15A,1.21
24,G10C G81C,0.214

row,Variant,self-cleavage
1,G10C G81U,0.196
2,G10C U69G,0.997
3,G10C U69A,0.831
4,G10C U69C,1.21
5,G10C A43G,0.317
6,G10C A43C,0.219
7,G10C A43U,0.415
8,G10A G17C,0.341
9,G10A G17U,0.525
10,G10C G50A,0.997
11,G10C G50U,0.956
12,G10A C36U,0.396
13,G10A C36A,0.0687
14,G10C G54C,1.09
15,G10C G59C,0.785
16,G10C G59A,0.895
17,U9G G52U,1.03
18,U9G C19U,0.119
19,U9G C19G,0
20,G10A C30A,0.0913
21,G10A C30U,0.248
22,U9G G55C,0.665
23,U9G G55U,1.05
24,G10A C64U,0.661

row,Variant,self-cleavage
1,G10C U60G,0.95
2,G10C U60C,0.8
3,U9G U23A,0.782
4,U9G U23G,0.95
5,U9G U23C,0.923
6,G10A G28C,0.0683
7,G10A G28A,0.0336
8,G10A G28U,0.0848
9,G10A C24A,0.367
10,G10C A77U,0.0554
11,G10C A77C,0.208
12,G10C G35A,0.525
13,G10C G35C,0.102
14,U9G G25C,0
15,U9G G59A,1.16
16,U9G G59U,1.06
17,G10C G68C,0.705
18,G10C G68A,0.706
19,U9G C22G,0.208
20,G10C A87U,0.984
21,U9G U27A,0.437
22,U9G U27G,0.935
23,U9G U27C,0.68
24,G10C A51U,0.923

row,Variant,self-cleavage
1,G10C A51G,0.72
2,G10A G35U,0.499
3,G10A G35C,0.1
4,G10A G35A,0.281
5,G10C G52C,0.78
6,G10A C49U,0.831
7,G10A C49A,0.665
8,G10A C21G,0.126
9,G10A C21A,0
10,G10A C21U,0.0453
11,U9G G80U,0.289
12,U9G G80A,0.516
13,G10C G74A,0.119
14,G10C G74C,0.161
15,G10C G74U,0.166
16,G10C G67U,0.782
17,G10A G40C,0.302
18,G10C G39C,0.359
19,G10C C36U,0.554
20,G10C C36A,0.0627
21,G10C C36G,0.0831
22,G10A A45U,0.534
23,G10A A45G,0.598
24,G10A A45C,0.219

row,Variant,self-cleavage
1,G10A U47A,0.665
2,G10A U47C,0.554
3,G10A C86G,0.639
4,G10A C86A,0.82
5,G10C C58G,0.917
6,G10C C57A,1.06
7,G10A A42C,0.0875
8,G10A A42G,0.251
9,G10A A42U,0.244
10,U9G C30U,0.853
11,U9G C30G,0.145
12,G10A C41U,0.607
13,G10A C41G,0.68
14,G10C G53A,0.95
15,G10C C22A,0.108
16,G10C C22U,0.326
17,G10C C22G,0
18,U9G C48U,1.05
19,G10A A43C,0.176
20,G10C C21A,0.0723
21,G10C C21U,0.0256
22,G10C C21G,0.032
23,U9G C24U,0.767
24,U9G C24A,0.525

row,Variant,self-cleavage
1,G10C G82A,0.314
2,G10C G82C,0.0875
3,G10C C62G,0.719
4,U9G U12G,1.11
5,U9G U12A,1.11
6,G10C G34C,0.289
7,G10C G38C,0.0941
8,G10C G38U,0.132
9,G10C G38A,0.0692
10,G10A G73C,0.19
11,U9G U20A,0
12,U9G G50C,1.01
13,U9G C61G,1.02
14,U9G C62G,0.462
15,G10C U23A,1.04
16,G10C U23G,0.332
17,G10C U79G,0.346
18,G10C U79A,0.277
19,U9G C85U,1.14
20,U9G C85G,0.895
21,U9G U47C,1.04
22,G10C G73C,0.277
23,U9G U69C,1.25
